Source: article PMC9847341 (Antibody Therapeutics, 2022)

Legend:
[1] = target: mouse chitinase 3-like-1 (mChi3l1) with C-terminal Avitag and His tag (Mus musculus, UniProt Q61362); assay: BLI
[2] = target: human chitinase 3-like-1 (hChi3l1) with C-terminal Avitag and His tag (Homo sapiens, UniProt P36222); assay: BLI
Chain of human chitinase 3-like-1 (hChi3l1) with C-terminal Avitag and His tag (P36222 22-383): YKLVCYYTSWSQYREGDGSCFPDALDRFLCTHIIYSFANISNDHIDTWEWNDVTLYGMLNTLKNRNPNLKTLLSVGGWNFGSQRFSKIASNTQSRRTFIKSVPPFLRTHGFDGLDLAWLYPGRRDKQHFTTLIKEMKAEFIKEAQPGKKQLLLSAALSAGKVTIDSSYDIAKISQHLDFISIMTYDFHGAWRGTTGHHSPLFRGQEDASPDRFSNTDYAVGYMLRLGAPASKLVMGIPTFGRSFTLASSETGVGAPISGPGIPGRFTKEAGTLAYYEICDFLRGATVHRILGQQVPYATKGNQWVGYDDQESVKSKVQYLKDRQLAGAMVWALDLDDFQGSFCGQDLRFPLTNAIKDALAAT

Chain of mouse chitinase 3-like-1 (mChi3l1) with C-terminal Avitag and His tag (Q61362 30-389): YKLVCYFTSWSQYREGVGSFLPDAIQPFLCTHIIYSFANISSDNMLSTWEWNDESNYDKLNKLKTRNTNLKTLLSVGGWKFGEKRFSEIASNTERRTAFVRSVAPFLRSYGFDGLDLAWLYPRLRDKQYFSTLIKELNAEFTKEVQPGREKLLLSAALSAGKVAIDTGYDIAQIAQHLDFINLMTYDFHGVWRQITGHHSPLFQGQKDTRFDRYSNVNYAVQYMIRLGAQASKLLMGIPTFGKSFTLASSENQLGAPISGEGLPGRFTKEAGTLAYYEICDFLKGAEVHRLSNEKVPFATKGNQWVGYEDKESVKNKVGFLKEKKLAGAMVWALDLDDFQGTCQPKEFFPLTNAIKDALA

B1: humanized C59, second version (hC59): hC59-1 with the S67F reverse mutation in the kappa chain FR3 (antibody, V domains shown)
VH: EVQLVESGGGLVQPGGSLRLSCAASGFTISSDYYMCWVRQAPGKGLEWIGCIYIGSGTDTYYASWAKGRFTISRHNSKNTLYLQMNSLRAEDTAVYYCARDKGWSNAWGFYFQLWGQGTLVTVSS
VL: DIQMTQSPSSLSASVGDRVTITCQASQSIGKYLNWYQQKPGKAPKLLIYSSSSLASGVPSRFSGSGFGTDFTLTISSLQPEDFATYYCQQGYSYVDLENGFGGGTKVEI
For B1, which Kd [1] is on record?
Its Kd is 7 nM.

And the Kd [2]?
The Kd was 9 nM.
